Data reported in paper PMC5975648.

Test: confocal fluorescence microscopy, ER and mitochondria markers
Conditions: glycan lost; control: Psd1-EGFP

B1: Psd1: Psd1(N34Q)-EGFP (protein)
parent chain: MSIMPVKNALAQGRTLLMGRMPAVKFSTRMQLRNRTAVLWNRKFSTRLFVQQRRSSGEIVDRAKAAAANSGRKQVSMKWVVLTSFTIVLGTILLVSRNDSTEEDATEGKKGRRTRKIKIFNNNWLFFCYSTLPLNAMSRLWGQVNSLTLPIWVRPWGYRLYSFLFGVNLDEMEDPDLTHYANLSEFFYRNIKPGTRPVAQGEDVIASPSDGKILQVGIINSETGEIEQVKGMTYSIKEFLGTHSHPLMSKSASSLDLTSDEEKHREFARVNRIQLAGSEDTEQPLLNFKNEGDQSVREFKPSVSKNIHLLSQLSLNYFSNGFSCSEPHDTELFFAVIYLAPGDYHHFHSPVDWVCKVRRHFPGDLFSVAPYFQRNFPNLFVLNERVALLGSWKYGFFSMTPVGATNVGSIKLNFDQEFVTNSKSDKHLEPHTCYQAVYENASKILGGMPLVKGEEMGGFELGSTVVLCFEAPTEFKFDVRVGDKVKMGQKLGIIGKNDLK
localisation_or_trafficking: no change
